Data published in PMC5378721, “The Proteasomal ATPases Use a Slow but Highly Processive Strategy to Unfold Proteins” (Frontiers in Molecular Biosciences, 2017).
One block for each molecule: values may come before it.

Experiments:
[1] = molecular target: PAN (Proteasome Activating Nucleotidase) (UniProt Q58576)
[2] = molecular target: T1, PAN (Proteasome Activating Nucleotidase), with T20S (Methanocaldococcus jannaschii, UniProt Q58576); assay: GFPssrA unfolding, loss of fluorescence […], ATPγS:ATP ratio series; type: biochemical; settings: competing with ATP, 2 mM total nucleotide, 0.2 μM GFPssrA, 400 nM T20S, 20 mM MgCl2, pH 7.5
T1 construct: homohexamer; with Proteasome subunit alpha (20S proteasome of Thermoplasma acidophilum, T20S); Proteasome subunit beta (20S proteasome of Thermoplasma acidophilum, T20S)
T1 sequence (P25156 whole entry partner, one chain of several): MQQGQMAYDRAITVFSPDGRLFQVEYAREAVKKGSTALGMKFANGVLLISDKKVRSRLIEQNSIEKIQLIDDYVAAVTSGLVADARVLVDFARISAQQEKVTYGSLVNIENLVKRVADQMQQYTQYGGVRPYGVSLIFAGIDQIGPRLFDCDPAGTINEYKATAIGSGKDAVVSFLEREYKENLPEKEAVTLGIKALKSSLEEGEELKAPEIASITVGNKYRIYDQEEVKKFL
T1 sequence (P28061 9-211 partner, one chain of several): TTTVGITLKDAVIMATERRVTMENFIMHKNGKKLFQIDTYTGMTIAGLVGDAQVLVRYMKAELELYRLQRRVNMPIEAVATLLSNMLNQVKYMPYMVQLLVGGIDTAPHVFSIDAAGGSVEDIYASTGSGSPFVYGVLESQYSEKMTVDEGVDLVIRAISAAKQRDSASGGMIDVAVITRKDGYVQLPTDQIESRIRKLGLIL

purified protein = substrate: Nc1ncnc2c1ncn2[C@@H]1O[C@H](COP(=O)(O)OP(=O)(O)OP(=O)(O)O)[C@@H](O)[C@H]1O; assay: purified protein; type: biochemical, Methanocaldococcus jannaschii; settings: 0.2 μM GFPssrA, 400 nM T20S, 20 mM MgCl2, pH 7.5, ATP hydrolysis read-out, printed unit doubtful: ATP was varied 0–3 mM, so mM likely meant

Km for GFPssrA in ATP-dependent unfolding by PAN (steady-state loss of GFP fluorescence, ex/em 485/510; GFPssrA 0 to 10 μM, 50 nM PAN, 400 nM T20S, 2 mM ATP) [1]: 0.187 µM
Molecule: GFPssrA (GFP with an unstructured ssrA tag)

Molecule: Nc1ncnc2c1ncn2[C@@H]1O[C@H](COP(=O)(O)OP(=O)(O)OP(O)(O)=S)[C@@H](O)[C@H]1O [ATPγS]
GFPssrA unfolding, loss of fluorescence 485/510, ATPγS:ATP ratio series [2]: as the ATPγS:ATP ratio increased, GFPssrA unfolding rate decreased

B1: PAN (Proteasome Activating Nucleotidase), with T20S (Methanocaldococcus jannaschii DSM 2661) (protein)
chain: MVFEEFISTELKKEKKAFTEEFKEEKEINDNSNLKNDLLKEELQEKARIAELESRILKLELEKKELERENLQLMKENEILRRELDRMRVPPLIVGTVVDKVGERKVVVKSSTGPSFLVNVSHFVNPDDLAPGKRVCLNQQTLTVVDVLPENKDYRAKAMEVDERPNVRYEDIGGLEKQMQEIREVVELPLKHPELFEKVGIEPPKGILLYGPPGTGKTLLAKAVATETNATFIRVVGSELVKKFIGEGASLVKDIFKLAKEKAPSIIFIDEIDAIAAKRTDALTGGDREVQRTLMQLLAEMDGFDARGDVKIIGATNRPDILDPAILRPGRFDRIIEVPAPDEKGRLEILKIHTRKMNLAEDVNLEEIAKMTEGCVGAELKAICTEAGMNAIRELRDYVTMDDFRKAVEKIMEKKKVKVKEPAHLDVLYR
notes: homohexamer; with Proteasome subunit alpha (20S proteasome of Thermoplasma acidophilum, T20S); Proteasome subunit beta (20S proteasome of Thermoplasma acidophilum, T20S)
Km (purified protein): 0.000397 ± 1.7e-05 mM
